Measurements taken from patent US20120195893A1 (UNITED STATES OF AMERICA AS REPRESENTED BY THE SECRETARY OF …, published 2012).

Target: T1, mouse DEC205 receptor (mouse, UniProt Q60767 28-1723)
T1 construct: whole, on cells; also called DEC25 receptor; CD205
Test: flow cytometry on DEC205-transfected A204 cells

B1: PyTh1 chimeric molecule (other)
heavy: EVKLLESGGGLVQPGGSLRLSCAASGFTFNDFYMNWIRQPPGQAPEWLGVIRNKGNGYTTEVNTSVKGRFTISRDNTQNILYLQMNSLRAEDTAIYYCARGGPYYYSGDDAPYWGQGVMVTVSSAKTTAPSVYPLAPVCGDTTGSSVTLGCLVKGYFPEPVTLTWNSGSLSSGVHTFPAVLQSDLYTLSSSVTVTSSTWPSQSITCNVAHPASSTKVDKKIEPRGPTIKPCPPCKCPAPNLLGGPSVFIFPPKIKDVLMISLSPIVTCVVVDVSEDDPDVQISWFVNNVEVHTAQTQTHREDYNSTLRVVSALPIQHQDWMSGKEFKCKVNNKDLPAPIERTISKPKGSVRAPQVYVLPPPEEEMTKKQVTLTCMVTDFMPEDIYVEWTNNGKTELNYKNTEPVLDSDGSYFMYSKLRVEKKNWVERNSYSCSVVHEGLHNHHTTKSFSQTPGKGGGGSGGGGSGGGGSVDEQLSKSVKDKVLLPCRYNSPHEDECEDRIYWQKHDKVVLSVIAGKLKVWPEYKNRTLYDNTTYSLIILGLVLSDRGTYSCVVQKKERGTYEVKHLALVKLSIKADFSTPNITESGNPSADTKRITCFASGGFPKPRFSWLENGRELPGINTTISQDPESELYTISSQLDFNTTRNHTIKCLIKYGDAHVSEDFTWEKPPEDPPDSK
light: DIQMTQSPSFLSTSLGNSITITCHASQNIKGWLAWYQQKSGNAPQLLIYKASSLQSGVPSRFSGSGSGTDYIFTISNLQPEDIATYYCQHYQSFPWTFGGGTKLELKRDAAPTVSIFPPSSEQLTSGGASVVCFLNNFYPKDINVKWKIDGSERQNGVLNSWTDQDSKDSTYSMSSTLTLTKDEYERHNSYTCEATHKTSTSPIVKSFNRNECGGGGSGGGGMGGGGSYNRNIVNRLLGDALNGKPEEK
notes: Mouse IgG2a scaffold with the variable domains of rat anti-mouse DEC205, made in SP20 myeloma cells; also called PhyTh1; PyTh1 vaccine
B1: binds.
